Results published in US11299524B2, “KIF13B-derived peptide and method of inhibiting angiogenesis” (THE BOARD OF TRUSTEES OF THE UNIVERSITY OF ILLINOIS, priority 2016, dated 2022).
Non-standard residues stand in square brackets, D forms with d. Residues, ends and D or L forms follow the SMILES beside them. No end group written: not given here. d2Nal = N[C@H](Cc1ccc2ccccc2c1)C(=O)O; Aib = CC(C)(N)C(=O)O

Legend:
[1] = tested on: vWF positive endothelial cells in tumors; assay: delivery of DY633-labeled peptide to tumors in H460-tumor bearing SCID mice; type: in vivo, mouse; conditions: 10 mg/kg i.v. via tail vein, tumors dissected after 1 hour
Experimental: Delivery of the DUF2C5 peptide was tested using synthesized peptide covalently conjugated with DY633 fluorescent probe (Pierce). DY633-DUF2C5 (10 mg/kg body weight), DY633-CT23 or DY633 alone were injected intravenous (i.v.) via tail vein in H460-tumor bearing SCID mice. After 1 hour, tumors were dissected and flash frozen in OCT. Cryosections of tumors were co-stained with vWF to visualize endothelial cells in tumors.

[2] = cited from earlier work
[3] = tested on: HUVECs; assay: VEGF-induced capillary network formation on […] in vitro; type: cell-based, human; conditions: truncated mutant expressed by lentivirus in HUVECs
Experimental: (§1) Collagen invasion assay was performed as previously described (Kang, et al. (2011) J. Biol. Chem. 286:42017-26). In vitro capillary network formation on […] (BD Biosciences, San Jose, Calif.) and scratch wound healing assay were performed as previously described (Humtsoe, et al. (2010) Mol. Cell Biol. 30:1593-1606). Fibrin gel sprouting assay was performed as described by Nakatsu & Hughes ((2008) Methods Enzymol. 443:65-82). VEGF (2.2 nmol/L) stimulation was used for all in vitro angiogenesis assays. Transwell migration assay was performed as described by Kaplan, et al. ((2011) Free Radical Res. 45:1124-35) using VEGF (4.4 nmol/L), sphingosine-1-phosphate (S1P) (1 μmol/L), or basic fibroblast growth factor (bFGF) (50 ng/mL) in the presence or absence of kinesin-derived angiogenesis inhibitor (DUF2C5; residues 1238-1260 of KIF13B) at varying concentrations.
(§2) To test the bioactivity of the truncated mutant of KIF13B, DUF2C was expressed by lentivirus vector in HUVECs. […] The collagen invasion system (Kang, et al. (2011) J. Biol. Chem. 286:42017-42026) was used as another angiogenesis assay to test the peptides. After infection with control lentivirus, FLAG-DUF2C, or FLAG-DUF2, HUVECs were seeded on collagen gels. Cell invasion in response to proangiogenic stimuli SIP and VEGF in the gel was monitored for up to 24 hours.
Bioactivities in two-dimensional capillary network formation assay were assessed in HUVECs expressing KIF13B truncated mutants or vector controls. HUVECs were infected with lentiviruses encoding FLAG-C2, -C3, -C5, -C8, -C9, or vector.
Changes in VEGF-induced network formation assay were assessed in […] plugs. […] VEGF-induced EC sprouting was also determined by 3-dimensional culture of HUVECs on beads (Nakatsu & Hughes (2008) Methods Enzymol. 443:65-82).

[4] = biological target: VEGFR2 (Homo sapiens, UniProt P35968); assay: pull-down binding assay with endogenous VEGFR2 from HUVEC lysates; set-up: endogenous in cells; host or cells: HUVEC; conditions: HUVEC lysate, anti-VEGFR2 western blot
Chain of VEGFR2 (P35968 20-1356): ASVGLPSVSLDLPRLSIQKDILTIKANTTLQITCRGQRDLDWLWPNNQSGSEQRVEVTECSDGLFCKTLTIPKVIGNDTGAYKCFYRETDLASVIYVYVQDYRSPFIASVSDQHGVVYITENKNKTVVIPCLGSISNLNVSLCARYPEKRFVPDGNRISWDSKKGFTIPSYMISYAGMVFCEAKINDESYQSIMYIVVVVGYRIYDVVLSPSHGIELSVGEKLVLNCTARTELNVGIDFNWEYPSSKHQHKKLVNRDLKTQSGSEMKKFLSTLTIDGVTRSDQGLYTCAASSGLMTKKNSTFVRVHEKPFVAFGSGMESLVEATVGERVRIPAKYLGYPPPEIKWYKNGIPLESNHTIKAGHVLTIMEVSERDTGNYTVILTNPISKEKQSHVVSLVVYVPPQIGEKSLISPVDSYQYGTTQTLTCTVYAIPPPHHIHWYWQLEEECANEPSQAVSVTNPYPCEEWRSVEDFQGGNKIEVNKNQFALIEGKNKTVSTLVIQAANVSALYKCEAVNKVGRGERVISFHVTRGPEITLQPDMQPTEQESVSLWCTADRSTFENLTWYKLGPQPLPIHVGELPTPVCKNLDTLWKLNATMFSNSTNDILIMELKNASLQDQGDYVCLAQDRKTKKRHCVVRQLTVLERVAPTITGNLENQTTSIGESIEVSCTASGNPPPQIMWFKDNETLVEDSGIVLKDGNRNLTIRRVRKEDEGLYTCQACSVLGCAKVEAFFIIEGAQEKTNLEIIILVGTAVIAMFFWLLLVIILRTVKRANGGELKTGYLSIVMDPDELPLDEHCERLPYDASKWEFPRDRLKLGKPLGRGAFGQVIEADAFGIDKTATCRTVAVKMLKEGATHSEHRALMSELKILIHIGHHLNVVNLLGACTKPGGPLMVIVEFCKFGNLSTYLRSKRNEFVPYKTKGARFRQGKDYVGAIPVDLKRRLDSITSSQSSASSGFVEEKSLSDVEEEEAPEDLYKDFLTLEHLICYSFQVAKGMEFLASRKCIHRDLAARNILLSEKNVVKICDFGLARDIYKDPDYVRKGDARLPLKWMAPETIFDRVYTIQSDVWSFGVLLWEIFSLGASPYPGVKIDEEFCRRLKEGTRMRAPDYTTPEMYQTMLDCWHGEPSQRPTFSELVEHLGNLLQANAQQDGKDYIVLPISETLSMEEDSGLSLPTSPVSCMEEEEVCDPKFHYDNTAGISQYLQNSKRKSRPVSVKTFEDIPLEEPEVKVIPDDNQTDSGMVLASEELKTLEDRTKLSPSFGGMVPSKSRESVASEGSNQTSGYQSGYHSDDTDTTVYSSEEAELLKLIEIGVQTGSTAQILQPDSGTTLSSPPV
From the text: Truncated mutants of KIF13B were expressed in BL21 (DE3) or Rosetta-gami and purified as previously described (Yamada, et al. (2014) J. Cell Sci. 127:4518-30; Yamada, et al. (2007) Biochemistry 46:10039-45).
Using recombinant proteins, the binding sites on KIF13B mediating the interaction with VEGFR2 were identified. KIF13B has a motor, forkhead-associated, membrane-associated guanylate kinase-binding stalk, 2 domains of unknown function (DUFs) (DUF3694), and a proline-rich and cytoskeleton-associated protein glycine-rich domain. The DUFs were identified from amino acid sequence similarity on the Pfam database. It has been previously shown that both domains of DUF3694 directly bind recombinant VEGFR2 in vitro (Yamada, et al. (2007) Biochemistry 46:10039-45). To define the specific peptide sequence inhibiting VEGFR2 trafficking, further analysis of the second DUF3694 domain (DUF2, residues 1112-1281 of KIF13B) was carried out. This was based on stability of this domain and a sequence distinct from binding sites for other cargoes of KIF13B (Horiguchi, et al. (2006) J. Cell Biol. 174:425-436; Hanada, et al. (2000) J. Biol. Chem. 275:28774-2878). DUF2 was divided into 3 parts, DUF2A (residues […]), DUF2B (residues 1168-1216), and DUF2C (residues 1217-1281) and each part was expressed as a recombinant protein in bacteria. VEGFR2 was abundantly expressed in HUVECs; thus, cell lysate from HUVECs was incubated with these recombinant proteins on beads, and VEGFR2 binding was determined using the anti-VEGFR2 antibody.
To identify the minimum binding site on VEGFR2, DUF2C was further truncated (DUF2C1-9) (FIG. 1). […] Stability of the C5 peptide was attributed to the 4-6 C-terminal residues. Accordingly, replacing these C-terminal residues with another a peptide, one or more post-translational modifications, one or more non-natural amino acid residues, a macromolecule such as PEG, or a combination thereof, is expected to stabilize the KAI peptide.
Initially, peptide interaction with VEGFR2 was confirmed using the pull-down assay.
To further define the KIF13B residues involved in binding to VEGFR2, truncations of the DUF2C5 peptide were tested for binding to VEGFR2 (Table 3) and compared to binding of DUF2C5 and peptides flanking this region (FIG. 1).

[5] = tested on: HUVECs; assay: collagen invasion assay; type: cell-based, human; conditions: lentiviral expression; S1P and VEGF; up to 24 hours
Experimental: as §1, §2

[6] = tested on: vessel formation of mouse ECs; assay: […] plug vessel formation assay in mice with lentivirus; type: in vivo; conditions: lentivirus s.c. with MATRIGEL, VEGF, bFGF, heparin; C57BL mice
Experimental: Hematoxylin and eosin staining of […] plug was supplemented with 4.4 nmol/L VEGF, 50 ng/mL of basic fibroblast growth factor, 60 U of heparin, and 0.8×10^8 IFU lentivirus (vector control, DUF2, or DUF2C5, or CT) and injected s.c. in C57BL6 mice. Data are expressed as means±SEM. N=4, 4, 5, and 5 for vector control, DUF2, DUF2C5, and CT, respectively. *P<0.05 (one-way analysis of variance). CT, residues 1528-1826 of KIF13B.
For the […] plug assay used to assess vessel formation of mouse ECs, C57BL6 males (Jackson Laboratory) were used as previously described (Yang & Proweller (2011) J. Biol. Chem. 286:13741-53). […] supplemented with 4.4 nmol/1 VEGF, 50 ng/ml bFGF, 60 U heparin, and 0.8×10^8 IFU of lentivirus was injected subcutaneously into abdomen. Four days after injection, […] was collected.
To address the role of KIF13B in mediating angiogenesis in vivo, the […] plug assay was performed in mice using lentivirus expressing truncated mutants of KIF13B. High titer of lentivirus was injected with […] s.c. into C57BL mice in the presence of VEGF, bFGF, and heparin.

With CC[N+](CCCS(=O)(=O)[O-])=c1ccc2c(C=CC=C3N(CCCCCC(=O)O)c4ccc(S(=O)(=O)[O-])cc4C3(C)C)cc(C(C)(C)C)oc-2c1.[Na+] [DY633] as the molecule, how does the “delivery into tumor sites (DY633 label in tumor cryosections)” value [1] read?
Its value is “not detected”.

With CC(C)(N)C(=O)N[C@@H](Cc1c[nH]cn1)C(=O)N[C@H](Cc1ccc2ccccc2c1)C(=O)N[C@H](Cc1ccccc1)C(=O)N[C@@H](CCCCN)C(N)=O [Ipamorelin] (H-[Aib]H[d2Nal][dF]K-NH2) as the molecule, how does the terminal half-life ([2]; in humans) read?
Its terminal half-life is “about 2 hours”.

With NC(=O)CC[C@@H]1NC(=O)[C@H](Cc2ccccc2)NC(=O)[C@H](Cc2ccc(O)cc2)NC(=O)[C@@H](N)CSSC[C@@H](C(=O)N2CCC[C@H]2C(=O)N[C@@H](CCCN=C(N)N)C(=O)NCC(N)=O)NC(=O)[C@H](CC(N)=O)NC1=O [vasopressin] as the molecule, how does the half-life ([2]; in humans) read?
Its half-life is 0.167 to 0.583 h.

For “C2: truncated KIF13B domain, residues 1221-1260, recombinant or lentivirus-expressed (FLAG-C2) (VKAEASWDSAVHGCPQLSRGTPVDERLFLIVRVTVQLSHP; not fully specified (N-terminus); also: FLAG tag; UniProt Q9NQT8 1221-1260, looked up, fragment)”, which “VEGF-induced capillary network formation” value [3] is on record?
The value was “significantly reduced”.

What about the VEGFR2 binding [4] of the same molecule?
The VEGFR2 binding was “bind VEGFR2”.

For “DUF2A: residues 1111-1167 of KIF13B, recombinant protein (QKLVSKRDKTEDDADREAQLLEMRLTLTEERNAVMVPSAGSGIPGAPAEWTPVPGME; left off: small tags and cut ends)”, which VEGFR2 binding [4] is on record?
Its VEGFR2 binding is “failed to bind”.

For “DUF2B: residues 1168-1216 of KIF13B, recombinant protein (THIPVIFLDLNADDFSSQDNLDDPEAGGWDATLTGEEEEEFFELQIVKQ; left off: small tags and cut ends)”, which VEGFR2 binding [4] is on record?
The VEGFR2 binding was “failed to bind”.

Which “VEGF-induced capillary network formation” value [3] does the source give for “PQLSRGTPVDERLFLIVR (listed as Homo sapiens) [DUF2C9, KIF13B residues 1235-1252]” here?
The value was “did not significantly reduce”.

And the VEGFR2 binding [4]?
Its VEGFR2 binding is “weakly bind VEGFR2”.

And the VEGFR2 binding ([4]; listed as C9)?
The VEGFR2 binding was “partial or unstable binding”.

Which VEGFR2 binding [4] does the source give for “SRGTPVDERLFLIVRVT (listed as Homo sapiens) [DUF2C6, KIF13B residues 1238-1254]” here?
Its VEGFR2 binding is “partial or unstable binding”.

With “TPVDERLFLIVRVTVQ (listed as Homo sapiens) [SEQ ID NO:3, Homo sapiens KAI peptide]” as the molecule, how does the VEGFR2 binding [4] read?
Its VEGFR2 binding is “sufficient for VEGFR2 binding”.

Which “VEGF-induced capillary network formation” value [3] does the source give for “TPVDERLFLIVRVTVQLSHPADMQLVLRKR . . . QGF (listed as Homo sapiens) [DUF2C3, KIF13B residues 1241-1281]” here?
Its value is “significantly reduced”.

What about the VEGFR2 binding [4] of the same molecule?
Its VEGFR2 binding is “bind VEGFR2”.

Which “VEGF-induced capillary network formation” value [3] does the source give for “VRVTVQLSHPADMQLVLR (listed as Homo sapiens) [DUF2C8, KIF13B residues 1251-1268]” here?
The value was “did not significantly reduce”.

What about the VEGFR2 binding [4] of the same molecule?
The VEGFR2 binding was “weakly bind VEGFR2”.

What about the VEGFR2 binding ([4]; listed as C8) of the same molecule?
The VEGFR2 binding was “partial or unstable binding”.

Which half-life ([2]; in humans) does the source give for albiglutide here?
Its half-life is 140 to 170 h.

For peginesatide, which elimination half-life ([2]; in healthy volunteers) is on record?
The elimination half-life was 18.9 h.

B1: DUF2: second DUF3694 domain, residues 1112-1281 of KIF13B (protein, UniProt Q9NQT8 1112-1281, looked up, fragment)
chain: KLVSKRDKTEDDADREAQLLEMRLTLTEERNAVMVPSAGSGIPGAPAEWTPVPGMETHIPVIFLDLNADDFSSQDNLDDPEAGGWDATLTGEEEEEFFELQIVKQHDGEVKAEASWDSAVHGCPQLSRGTPVDERLFLIVRVTVQLSHPADMQLVLRKRICVNVHGRQGF
For B1, which distance of invasion [5] is on record?
The distance of invasion was “significantly reduced”.

And the “invasion of HUVECs into collagen gel” value [5]?
The value was “significantly reduced”.

What about the “number of lumen formed” value [5] of the same molecule?
The value was “significantly reduced”.

What about the “thickness of invading sprouts” value [5] of the same molecule?
Its value is “not different among the groups”.

What about the “number of vessels in MATRIGEL plug” value [6] of the same molecule?
The value was “significantly reduced”.

B2: DUF2C: residues 1217-1281 of KIF13B, recombinant protein (protein)
chain: HDGEVKAEASWDSAVHGCPQLSRGTPVDERLFLIVRVTVQLSHPADMQLVLRKRICVNVHGRQGF
modifications: left off: small tags and cut ends
notes: residues 1217-1281 of KIF13B, recombinant protein
Which “VEGF-induced capillary network formation” value [3] does the source give for B2 here?
Its value is “sufficient to reduce”.

What about the distance of invasion [5] of the same molecule?
The distance of invasion was “significantly reduced”.

What about the “invasion of HUVECs into collagen gel” value [5] of the same molecule?
Its value is “significantly reduced”.

And the “number of lumen formed” value [5]?
The value was “significantly reduced”.

And the “thickness of invading sprouts” value [5]?
Its value is “not different among the groups”.

And the VEGFR2 binding [4]?
Its VEGFR2 binding is “specifically binds”.

B3: CT: C-terminus region of KIF13B (residues 1528 to 1826), negative control (protein, UniProt Q9NQT8 1528-1826, looked up, fragment)
chain: ICDKPAKVPSPPPVIAVTAVTPAPEAQDGPPSPLSEASSGYFSHSVSTATLSDALGPGLDAAAPPGSMPTAPEAEPEAPISHPPPPTAVPAEEPPGPQQLVSPGRERPDLEAPAPGSPFRVRRVRASELRSFSRMLAGDPGCSPGAEGNAPAPGAGGQALASDSEEADEVPEWLREGEFVTVGAHKTGVVRYVGPADFQEGTWVGVELDLPSGKNDGSIGGKQYFRCNPGYGLLVRPSRVRRATGPVRRRSTGLRLGAPEARRSATLSGSATNLASLTAALAKADRSHKNPENRKSWAS
Which “VEGF-induced capillary network formation” value [3] does the source give for B3 here?
Its value is “formed capillary networks”.

What about the “number of vessels in MATRIGEL plug” value [6] of the same molecule?
The value was “no significant effect”.

What about the VEGFR2 binding [4] of the same molecule?
Its VEGFR2 binding is “does not bind”.
